In US20230192839A1, “ANTIBODIES HAVING CONDITIONAL AFFINITY AND METHODS OF USE THEREOF” (PFIZER INC., priority 2017, published 2023):

Tests used:
Type in all cases: cell-based, human
[1] = test system: MV4-11 target cells (which express CD33); assay: IL-2 and IFN-γ secretion by CD33-specific conditional CAR T cells after CAR or TCR stimulation; details: activation via anti-CD33 CAR by MV4-11 cells; 100 µM MTX; 24 hours; FIGS. 6A and 6C
Method: The example examines the levels secretion of the cytokines IL-2 and IFN-γ by conditional CAR T cells containing an anti-CD33 antibody having conditional affinity, after stimulation of the CAR T cell via either i) the CAR in the CAR T cell or ii) the TCR in the CAR T cell. In addition, these were examined in both the presence and absence of methotrexate (MTX).
The anti-CD33 clone used in this example was P02_D09. […] In addition, a tool T cell was prepared as described in Example 4, as were untransduced T cells.
(§1) The target cell line used in this assay was MV4-11, as described in Example 5.
Assays were carried out in 96-well plates by culturing 100,000 T cells with various other reagents (depending on the assay), for each of the different T cells described above. Each of the co-cultures contained either 100 µM MTX or 0 µM MTX. In both conditions, 1 mM leucovorin was supplemented to circumvent MTX toxicity. To stimulate the CAR T cells via the anti-CD33 CARs, 100,000 MV4-11 target cells (which express CD33) were included in the culture with the T cells. To stimulate the CAR T cells via the TCR, T cell Activation/Expansion Beads (Miltenyi) were included in the culture with the T cells (i.e. in the absence of target cells). […] The cytokines in the supernatant were measured using U-PLEX Th1/Th2 Combo plates (Meso-Scale Discovery; Rockville, MD) according to the manufacturer’s specifications.

[2] = test system: MV4-11 target cells; assay: Proliferation of CD33-specific conditional CAR T cells after CAR or TCR stimulation, cell count by flow cytometry; details: 100 µM MTX vs no MTX, 7 days, FIG. 7
Method: The example examines the proliferative capabilities of conditional CAR T cells containing an anti-CD33 antibody having conditional affinity after stimulation of the CAR T cell via either the CAR T cell’s i) CAR or ii) TCR. In addition, these were examined in both the presence and absence of methotrexate (MTX).
The anti-CD33 clone used in this example was P02_D09. In addition, a tool T cell was prepared as described in Example 4, as were untransduced T cells. T cells from one PBMC donor were used for this experiment.
as §1
The assays were carried out in 96-well plates by culturing 100,000 T cells with various other reagents (depending on the assay), for each of the different T cells described above. In addition, each of the co-cultures contained either 100 µM MTX or 0 µM MTX. In both conditions, 1 mM leucovorin was supplemented to circumvent MTX toxicity. The T cells were stimulated by CAR or TCR as in Example 6. Cultures were maintained in a final volume of 100 ul of RPMI 1640 medium for 7 days at 37 C with 5% CO2. On day 7, cells were collected and counted via flow cytometry (BD LSR II) using 123Count eBeads (Thermo Fisher Scientific).

[3] = test system: MV4-11 cells; assay: Flow cytometry analysis of MTX-dependent CAR T cell activation (CD69) and proliferation (CellTrace); details: 100 µM MTX vs 0 µM MTX, with target cells, FIG. 8
Method: The anti-CD33 clone used in this example was P02_D09. CAR T cells containing this clone were generated in duplicate from PBMC cells from two different human donors. The target cell line used in this assay was MV4-11, as described in Example 5.
To assess activation of the conditional CAR T cells described above, in vitro cytotoxicity assays were carried out in 24-well plates by co-culturing 250,000 CAR T cells, with or without 250,000 MV4-11 cells. In addition, each of the co-cultures contained either 100 µM MTX or 0 µM MTX. In all conditions, 1 mM leucovorin was supplemented to circumvent MTX toxicity. Cells were collected after 24 hours of co-culture, labeled with fluorophore-conjugated antibody to CD69 (Biolegend) and analyzed by flow cytometry (BD LSR II). Activation was quantified via detection of the early activation marker, CD69.
To assess proliferative ability of the CAR T cells described above, the cells were prelabelled with the fluorescent intracellular dye, CellTrace Deep Red (Invitrogen), before co-culturing as described immediately above for the CAR T cell activation assay. The co-cultures were incubated for 7 days at 37 C with 5% CO2. On day 7, cells were collected and analyzed via flow cytometry. Dilution of the CellTrace dye (leftward shift of peaks in the histogram) was interpreted as T cell proliferation.

[4] = test system: MV4-11 cells; assay: Sequential rounds of in vitro cytotoxicity assays with changing MTX concentration (reversible inhibition); details: Round 0-1 no MTX, then 100 µM MTX at Round 1-2 and Round 2-3; FIGS. 9A and 9B
Method: The anti-CD33 clones tested in this example were: P03_A01, P07_C04, and P02_D09. In addition, a tool T cell was prepared as described in Example 4, as were untransduced T cells. Also, each of the different conditional CAR T cells described above was generated in triplicate from PBMC cells from three different human donors. The target cell line used in this assay was MV4-11; these cells were transduced to stably express GFP and firefly luciferase, as described in Example 5.
This experiment involved a series of in vitro cytotoxicity assays, in which co-cultures of T cells and MV4-11 target cells were incubated together for multiple rounds of sequential cytotoxicity assays, in which the MTX concentration changed at different rounds of the assays. In vitro cytotoxicity assays were carried out in 24-well plates by co-culturing 200,000 T cells with 200,000 MV4-11 cells, for each different T cells described above. In addition, each of the co-cultures contained either 100 µM MTX or 0 µM MTX at different times, as indicated by the schematics in FIGS. 9A and 9C. In both conditions, 1 mM leucovorin was supplemented to circumvent MTX toxicity. For each round of the assay, co-cultures were maintained in a final volume of 500 µl of RPMI 1640 medium at 37 C with 5% CO2 for 48 hours. At the end of each round, cells were spun down (250 × g, 10 minutes), supernatant was removed, and fresh media containing fresh MV4-11 cells, leucovorin, and optionally MTX were added according to the schematics shown in FIGS. 9A and 9C. Target cell killing was assessed and plotted as described in Example 4.
In comparing the different panels of FIGS. 9A-9D, note that the schematics shown in FIGS. 9A and 9C indicate the MTX concentration in the co-culture at the start of the assay for a given round, whereas the results from that assay are shown the next round number in FIGS. 9B and 9D, respectively. […]

B1: P02_D09: anti-CD33 clone with conditional affinity; VH SEQ ID NO: 35, VL SEQ ID NO: 36; also as scFv in CAR (antibody, V domains shown)
VH: QVQLVESGGGLVQAGGSLRLSCAASRRSSRSWAMHWVRQAPGKGLEWVAVISYDGRLKYYADSVKGRFTISRDNAEYLVYLQMNSLRAEDTAVYYCAAEEGDGGFFDYWGQGTLVTVSS
VL: QSVLTQPPSASGTPGQRVTISCSGSSSNIGSNYVNWYQQLPGTAPKLLIYRNNERPSGVPDRFSGSKSGTSASLAISGLRSEDEADYYCAAWDGSLSGRGVFGTGTKLTVL
modifications: Synthetic Antibody
notes: also as scFv in CAR
IL-2 and IFN-γ production, CAR stimulation, presence of MTX [1]: reduced back to the level comparable to that of unstimulated T cells | proliferative ability, CAR stimulation, presence of MTX ([2]; CAR stimulation (CD33)): dramatically diminished | proliferation, TCR stimulation, presence of MTX ([2]; TCR stimulation (CD3/CD28)): not affected by MTX | activation (CD69) in the presence of MTX ([3]; 24 hours): dramatically reduced | proliferation (CellTrace dilution) in the presence of MTX ([3]; 7 days): dramatically reduced | target cell killing when MTX is added to active CAR T cells ("on" to "off") [4]: quick inhibition rates
